Measured values: patent US20200017592A1 (Regeneron, published 2020)

Columns and labels:
[1] = target: T1, full-length human IL-36R on cells (human, UniProt Q9HB29 20-575); assay: cell-based or functional assay
T1 sequence (looked up): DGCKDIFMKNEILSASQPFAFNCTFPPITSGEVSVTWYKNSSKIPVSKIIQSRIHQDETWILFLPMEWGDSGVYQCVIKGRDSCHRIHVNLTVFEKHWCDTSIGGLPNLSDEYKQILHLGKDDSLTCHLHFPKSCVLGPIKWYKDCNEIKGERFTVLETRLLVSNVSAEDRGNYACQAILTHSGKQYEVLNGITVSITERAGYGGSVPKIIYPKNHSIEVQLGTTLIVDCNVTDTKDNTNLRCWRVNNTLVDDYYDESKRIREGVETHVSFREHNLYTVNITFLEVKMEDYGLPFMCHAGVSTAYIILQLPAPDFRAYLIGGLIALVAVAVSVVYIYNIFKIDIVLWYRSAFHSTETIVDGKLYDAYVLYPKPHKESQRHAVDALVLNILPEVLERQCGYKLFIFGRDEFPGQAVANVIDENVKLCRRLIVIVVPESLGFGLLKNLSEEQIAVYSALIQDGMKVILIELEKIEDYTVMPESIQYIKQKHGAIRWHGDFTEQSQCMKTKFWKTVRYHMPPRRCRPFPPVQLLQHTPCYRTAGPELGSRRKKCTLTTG

[2] = target: T1, full-length human IL-36R on cells; assay: cell-based or functional assay; remark: listed apart in the source
[3] = target: T2, recombinant human IL-36R extracellular domain expressed with a C-terminal myc-myc-hexahistidine tag (human, UniProt Q9HB29 20-337); assay: SPR (Biacore 4000), mAb captured on anti-human Fc, 37°C
T2 construct: also called hIL-36R-MMH; hIL-36R.mmH
Protocol: (§1) Equilibrium dissociation constants (KD values) for IL-36R binding to purified anti-IL-36R antibodies were determined using a real-time surface plasmon resonance biosensor using a Biacore 4000 instrument. The Biacore sensor surface was first derivatized by amine coupling with a monoclonal mouse anti-human Fc antibody (GE, # BR-1008-39) to capture anti-IL-36R monoclonal antibodies. All binding studies were performed in 0.01 M Hepes pH 7.4, 0.15 M NaCl, 3 mM EDTA, and 0.05% v/v Surfactant Tween-20 (HBS-ET running buffer) at 25° C. and 37° C. Different concentrations of IL-36R reagents, human IL-36R extracellular domain expressed with a C-terminal myc-myc-hexahistidine tag (hIL-36R-MMH), Macaca fascicularis IL-36R extracellular domain expressed with a C-terminal myc-myc-hexahistidine tag (mfIL-36R-MMH: mROR1 signal sequence (M1-A29). Macaca fascicularis IL36R_ecto domain (D20-A336).mycmycHis6), human IL-36R extracellular domain expressed with a C-terminal mouse IgG2a Fc tag (hIL-36R-mFc: mROR1 signal sequence (M1-A29)-human IL36R (D20-Y337)-mouse IgG2aFc (E98-K330)) or an in-line fusion protein of human IL-36R extracellular domain and IL1RAcP extracellular domain expressed with mouse IgG2a Fc tag (hIL-36R-Trap-mFc: mROR1 signal sequence (M1-A29)-human IL36R ecto domain (D20-Y337)-human IL1RacP ecto domain(S21-E359)-mouse IgG2aFc) in HBS-ET running buffer (ranging from 100 nM to 3.7 nM, 3-fold dilutions) were injected over the anti-IL-36R antibody captured surface for 4 minutes at a flow rate of 30 μL/minute and their dissociation in HBS-ET running buffer was monitored for 10 minutes. Kinetic association rate constant (kₐ) and dissociation rate constant (kd) were determined by fitting the real-time sensorgrams to a 1:1 binding model using Scrubber 2.0c curve fitting software. Binding dissociation equilibrium constants (KD) and dissociative half-lives (t_{1/2}) were calculated from the kinetic rate constants as: […]

[4] = target: T3, Macaca fascicularis IL-36R on cells (Macaca fascicularis, UniProt A0A2K5WSK9 20-558); assay: cell-based or functional assay
T3 sequence: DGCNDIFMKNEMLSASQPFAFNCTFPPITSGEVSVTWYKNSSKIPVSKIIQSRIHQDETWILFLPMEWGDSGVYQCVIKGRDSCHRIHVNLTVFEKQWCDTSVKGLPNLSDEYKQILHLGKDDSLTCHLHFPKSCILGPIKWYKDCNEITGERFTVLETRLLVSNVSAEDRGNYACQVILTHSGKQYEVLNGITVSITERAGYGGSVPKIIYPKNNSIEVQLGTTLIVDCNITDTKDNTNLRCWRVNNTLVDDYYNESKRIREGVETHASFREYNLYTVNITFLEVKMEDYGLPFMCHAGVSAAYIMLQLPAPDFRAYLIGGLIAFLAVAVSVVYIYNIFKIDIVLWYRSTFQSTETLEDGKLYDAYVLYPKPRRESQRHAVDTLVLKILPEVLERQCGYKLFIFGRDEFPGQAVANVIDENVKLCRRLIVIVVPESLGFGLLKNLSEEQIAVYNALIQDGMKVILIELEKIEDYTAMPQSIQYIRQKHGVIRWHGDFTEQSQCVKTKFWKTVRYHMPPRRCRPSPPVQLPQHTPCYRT

[5] = target: T2, recombinant human IL-36R extracellular …; assay: SPR (Biacore 4000), mAb captured on anti-human Fc, 25°C
Protocol: as §1

[6] = target: T4, human IL-36R (IL1RL2) on primary human cells (human, UniProt Q9HB29 20-575); assay: cell-based or functional assay
T4 sequence (looked up): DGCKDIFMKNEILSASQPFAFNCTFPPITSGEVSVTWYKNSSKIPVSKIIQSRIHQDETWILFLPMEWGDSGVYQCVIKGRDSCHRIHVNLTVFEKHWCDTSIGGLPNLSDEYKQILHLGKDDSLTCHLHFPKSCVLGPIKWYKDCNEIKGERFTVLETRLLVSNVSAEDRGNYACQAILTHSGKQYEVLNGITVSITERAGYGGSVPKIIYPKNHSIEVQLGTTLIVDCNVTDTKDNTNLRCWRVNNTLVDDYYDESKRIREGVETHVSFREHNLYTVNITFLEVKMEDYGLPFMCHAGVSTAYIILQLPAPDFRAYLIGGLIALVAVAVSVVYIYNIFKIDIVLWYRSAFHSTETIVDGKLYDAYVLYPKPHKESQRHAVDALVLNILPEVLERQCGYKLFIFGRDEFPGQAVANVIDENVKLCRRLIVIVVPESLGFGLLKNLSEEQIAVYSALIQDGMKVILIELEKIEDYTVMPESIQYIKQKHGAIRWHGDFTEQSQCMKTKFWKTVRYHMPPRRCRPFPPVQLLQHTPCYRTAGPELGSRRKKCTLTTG

T2 sequence (Q9HB29 other isoform, or with tags, fused parts or gaps limits assumed): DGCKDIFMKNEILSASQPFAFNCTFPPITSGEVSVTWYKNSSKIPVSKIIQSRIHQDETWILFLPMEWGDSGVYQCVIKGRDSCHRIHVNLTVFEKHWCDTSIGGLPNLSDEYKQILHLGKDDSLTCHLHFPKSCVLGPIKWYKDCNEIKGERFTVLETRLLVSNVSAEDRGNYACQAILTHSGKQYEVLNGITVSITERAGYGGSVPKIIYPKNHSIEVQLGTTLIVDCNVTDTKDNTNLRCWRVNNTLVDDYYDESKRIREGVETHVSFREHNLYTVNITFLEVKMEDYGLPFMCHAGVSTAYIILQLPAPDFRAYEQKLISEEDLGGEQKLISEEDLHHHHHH

IC50 [M], NFκB-luciferase, 10 pM hIL-36γ [1] [M] | IC50 [M], NFκB-luciferase, 15 pM hIL-36β [1] [M] | IC50 [M], NFκB-luciferase, 20 pM hIL-36α [1] [M] | Max Inhibition (%), NFκB-luciferase, 10 pM hIL-36γ [1] [%] | Max Inhibition (%), NFκB-luciferase, 15 pM hIL-36β [1] [%] | Max Inhibition (%), NFκB-luciferase, 20 pM hIL-36α [1] [%] | IC50, IL-8 production of primary human cells stimulated with 10 nM IL-36α, β and γ [2] [nM] | 100 nM hIL-36R-MMH Bound (RU) [3] [RU] | Kd [3] [nM] | koff [3] [s⁻¹] | kon [3] [M⁻¹ s⁻¹] | t½ [3] [min] | IC50 [M], NFκB-luciferase, 300 pM hIL-36γ [4] [M] | IC50 [M], NFκB-luciferase, 500 pM hIL-36α [4] [M] | IC50 [M], NFκB-luciferase, 600 pM hIL-36β [4] [M] | Max Inhibition (%), NFκB-luciferase, 300 pM hIL-36γ [4] [%] | Max Inhibition (%), NFκB-luciferase, 500 pM hIL-36α [4] [%] | Max Inhibition (%), NFκB-luciferase, 600 pM hIL-36β [4] [%] | 100 nM hIL-36R-MMH Bound (RU) [5] [RU] | Kd [5] [nM] | further results | Binder
1.2e-10 | 1.2e-10 | 1e-10 | 99 | 101 | 101 | 1 to 6 | 113 | 8.65 | 0.0013 | 150000 | 9 | 8.5e-11 | 6e-11 | 1.2e-10 | 100 | 100 | 100 | 89 | 4.08 | koff [5]: 0.000495 s⁻¹; kon [5]: 121000 M⁻¹ s⁻¹; t½ [5]: 23 min | H4H14706P2 (antibody, human IgG4 S228P, kappa, V domains shown) VH: EVQLVESGGGLVQPGRSLRLSCTASGFTFDDYAIHWVRQSPGKGLEWVSVISWNSDVIGYADSVKGRFTISRDNAKNSLYLQMNSLRAEDTALYYCAKGYNWNFFDYWGQGTLVTVSS VL: EIVLTQSPATLSLSPGERATLSCRASQSVSSYLAWYQQKPGQAPRLLIYNAANRATDIPARFSGSGSGTDFTLTISSLEPEDFAVYYCQQRSNWPLTFGGGTKVEIKR [H4H14706P2, listing 1 of 2 here]
 |  |  |  |  |  |  |  |  |  |  |  |  |  |  |  |  |  |  |  | IC50 [M], IL-8 production, InMyoFib stimulated with 10 nM hIL-36α [6]: 4.89e-09 M; IC50 [M], IL-8 production, InMyoFib stimulated with 10 nM hIL-36β [6]: 3.62e-09 M; IC50 [M], IL-8 production, InMyoFib stimulated with 10 nM hIL-36γ [6]: 4.59e-09 M; IC50 [M], IL-8 production, NHEK stimulated with 10 nM hIL-36α [6]: 4.42e-09 M; IC50 [M], IL-8 production, NHEK stimulated with 10 nM hIL-36β [6]: 3.62e-09 M; IC50 [M], IL-8 production, NHEK stimulated with 10 nM hIL-36γ [6]: 2.11e-09 M; IC50 [M], IL-8 production, PB-derived CD14+ Monocytes stimulated with 10 nM hIL-36α [6]: 1.15e-09 M; IC50 [M], IL-8 production, PB-derived CD14+ Monocytes stimulated with 10 nM hIL-36β [6]: 1.74e-09 M; IC50 [M], IL-8 production, PB-derived CD14+ Monocytes stimulated with 10 nM hIL-36γ [6]: 1.58e-09 M | H4H14706P2 (antibody, human IgG4 S228P, kappa, V domains shown) VH: EVQLVESGGGLVQPGRSLRLSCTASGFTFDDYAIHWVRQSPGKGLEWVSVISWNSDVIGYADSVKGRFTISRDNAKNSLYLQMNSLRAEDTALYYCAKGYNWNFFDYWGQGTLVTVSS VL: EIVLTQSPATLSLSPGERATLSCRASQSVSSYLAWYQQKPGQAPRLLIYNAANRATDIPARFSGSGSGTDFTLTISSLEPEDFAVYYCQQRSNWPLTFGGGTKVEIKR [H4H14706P2, listing 2 of 2 here]
 |  |  |  |  |  |  |  |  |  |  |  |  |  |  |  |  |  |  |  | IC50 [M], IL-8 production, InMyoFib stimulated with 10 nM hIL-36α [6]: 5.72e-09 M; IC50 [M], IL-8 production, InMyoFib stimulated with 10 nM hIL-36β [6]: 5.3e-09 M; IC50 [M], IL-8 production, InMyoFib stimulated with 10 nM hIL-36γ [6]: 6.4e-09 M; IC50 [M], IL-8 production, NHEK stimulated with 10 nM hIL-36α [6]: 5.06e-09 M; IC50 [M], IL-8 production, NHEK stimulated with 10 nM hIL-36β [6]: 5.79e-09 M; IC50 [M], IL-8 production, NHEK stimulated with 10 nM hIL-36γ [6]: 3.63e-09 M; IC50 [M], IL-8 production, PB-derived CD14+ Monocytes stimulated with 10 nM hIL-36α [6]: 2.38e-09 M; IC50 [M], IL-8 production, PB-derived CD14+ Monocytes stimulated with 10 nM hIL-36β [6]: 2.24e-09 M; IC50 [M], IL-8 production, PB-derived CD14+ Monocytes stimulated with 10 nM hIL-36γ [6]: 1.95e-09 M | H4H14708P2 (antibody, human IgG4 S228P, kappa, V domains shown) VH: EVQLVESGGDLVQPGRSLRLSCAASGFTFDDYAMHWVRQAPGKGLEWVSVISWNSDVIAYSDSVKGRFTISRDNAKNSLYLQMNSLRTEDTALYYCTKGHKWSFFDYWGQGTLVTVSS VL: EIVLTQSPATLSLSPGERATLSCRASQSISSYLAWYQQKPGQAPRLLIFNVANRATDIPARFSGSGSGTDFTLTISSLEPEDFAVYYCQQRSNWPLTFGGGTKVEIKR [H4H14708P2, listing 1 of 2 here]
1.6e-10 | 2e-10 | 1.3e-10 | 99 | 100 | 101 | 1 to 6 | 106 | 13.6 | 0.00186 | 136000 | 6 | 1.2e-10 | 8.9e-11 | 1.2e-10 | 100 | 99 | 100 | 76 | 6.82 | koff [5]: 0.000623 s⁻¹; kon [5]: 91400 M⁻¹ s⁻¹; t½ [5]: 19 min | H4H14708P2 (antibody, human IgG4 S228P, kappa, V domains shown) VH: EVQLVESGGDLVQPGRSLRLSCAASGFTFDDYAMHWVRQAPGKGLEWVSVISWNSDVIAYSDSVKGRFTISRDNAKNSLYLQMNSLRTEDTALYYCTKGHKWSFFDYWGQGTLVTVSS VL: EIVLTQSPATLSLSPGERATLSCRASQSISSYLAWYQQKPGQAPRLLIFNVANRATDIPARFSGSGSGTDFTLTISSLEPEDFAVYYCQQRSNWPLTFGGGTKVEIKR [H4H14708P2, listing 2 of 2 here]
